We go through two molecules from paper PMC4297941 (Redox Biology, 2014).

The target of data set [1] is T1, wild type human endothelial nitric oxide synthase (eNOS), histidine tagged, recombinant (human), P29474.
T1 chain: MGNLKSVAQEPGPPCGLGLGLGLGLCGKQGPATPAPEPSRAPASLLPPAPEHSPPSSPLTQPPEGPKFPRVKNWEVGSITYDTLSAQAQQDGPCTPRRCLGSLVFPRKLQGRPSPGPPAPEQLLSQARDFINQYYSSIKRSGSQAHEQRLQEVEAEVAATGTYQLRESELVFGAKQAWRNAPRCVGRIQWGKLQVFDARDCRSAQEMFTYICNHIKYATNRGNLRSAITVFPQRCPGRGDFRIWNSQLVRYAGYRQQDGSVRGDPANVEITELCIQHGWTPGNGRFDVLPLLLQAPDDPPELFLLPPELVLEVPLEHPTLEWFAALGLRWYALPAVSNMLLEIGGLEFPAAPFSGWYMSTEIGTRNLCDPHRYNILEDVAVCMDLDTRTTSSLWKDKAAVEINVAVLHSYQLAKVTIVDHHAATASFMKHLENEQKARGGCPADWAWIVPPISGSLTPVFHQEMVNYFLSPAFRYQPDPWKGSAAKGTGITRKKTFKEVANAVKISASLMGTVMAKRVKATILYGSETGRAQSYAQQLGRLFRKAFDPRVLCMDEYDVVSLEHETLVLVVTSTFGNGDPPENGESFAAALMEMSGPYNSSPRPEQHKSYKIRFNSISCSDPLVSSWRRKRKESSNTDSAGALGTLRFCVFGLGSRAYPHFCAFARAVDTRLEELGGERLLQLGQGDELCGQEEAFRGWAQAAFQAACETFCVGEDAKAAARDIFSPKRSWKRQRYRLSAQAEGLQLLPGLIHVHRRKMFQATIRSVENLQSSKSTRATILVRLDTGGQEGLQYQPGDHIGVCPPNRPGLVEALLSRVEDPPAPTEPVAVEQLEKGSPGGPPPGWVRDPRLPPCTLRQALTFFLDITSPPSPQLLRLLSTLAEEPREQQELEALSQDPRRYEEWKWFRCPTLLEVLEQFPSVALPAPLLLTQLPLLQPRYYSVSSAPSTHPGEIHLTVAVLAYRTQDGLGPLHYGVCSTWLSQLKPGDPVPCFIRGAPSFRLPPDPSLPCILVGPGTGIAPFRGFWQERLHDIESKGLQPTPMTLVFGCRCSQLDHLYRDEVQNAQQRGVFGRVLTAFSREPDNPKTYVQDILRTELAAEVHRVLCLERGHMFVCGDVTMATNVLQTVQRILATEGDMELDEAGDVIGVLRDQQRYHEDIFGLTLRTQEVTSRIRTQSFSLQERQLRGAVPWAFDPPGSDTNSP
Description: SEC. The conditions noted are these: remark: other sources report otherwise.

The data set “SEC” deals with the molecule itself. The data set can be described thus: SEC.

Changes are numbered by the printed parent chain. Names and notes keep the numbering of the source.

B1: wild type human endothelial nitric oxide synthase (eNOS), histidine tagged, recombinant, P29474 1-1203 (enzyme)
chain: T1 chain
As for B1, the stoichiometry N in data set [1] is 2.

B2: C94R/C99R eNOS mutant, histidine tagged, recombinant (enzyme, human, UniProt P29474 1-1203, looked up)
chain: T1 chain with C94R, C99R
Regarding B2, the “stoichiometry N” value in “SEC” was 2.
